Test results reported in article PMC12011707.
Positions count from the first letter of the chain named.

B1: wildtype FGF10 (38-208) (ligand)
chain: QALGQDMVSPEATNSSSSSFSSPSSAGRHVRSYNHLQGDVRWRKLFSFTKYFLKIEKNGKVSGTKKENCPYSILEITSVEIGVVAVKAINSNYYLAMNKKGKLYGSKEFNNDCKLKERIEENGYNTYASFNWQHNGRQMYVALNGKGAPRRGQKTRRKNTSAHFLPMVVHS
B2: FGF10-STAB3 (ligand)
chain: B1 chain with W42I, K50G, K57P, N92G, Q133R, R150E
B3: FGF10-STAB2 (ligand)
chain: B1 chain with W42I, K50G, K57P, N92G, Q133R, R150V

molecular target: human extracellular domain of FGFR2b fused with the Fc domain of IgG1 (human); test: BLI; Octet K2; FGFR extracellular domain-Fc immobilised on a protein A biosensor; FGF10 variants in PBS, 31.25 to 250 nM (told for FGFR2b-Fc); association and dissociation 300 s each; KD from fitted saturation binding curves

Kd [nM] | Binder
764 | B1
913 | B2
996 | B3
